Data taken from paper PMC4246082, “A Coiled-coil Clamp Controls Both Conformation and Clustering of Stromal Interaction Molecule 1 (STIM1)*” (The Journal of Biological Chemistry, 2014).

Molecular target: the molecule itself
Test: SEC; Superdex S200 10/300 GL, 4 °C; 100-μl injections of 1.25 mg/ml and 0.25 mg/ml CC3ext; in-line MALS gave no molecular weight because of elution in the void volume

B1: STIM1 CC3ext (residues 388-491) (domain or fragment, human, UniProt Q13586-1 388-491, looked up)
chain: NTLFGTFHVAHSSSLDDVDHKILTAKQALSEVTAALRERLHRWQQIEILCGFQIVNNPGIHSLVAALNIDPSWMGSTRPNPAHFIMTDDVDDMDEEIVSPLSMQ
notes: STIM1, human, residues 388-491 (CC3ext); Subcloned into pET-28a via NheI and XhoI; monomer 12.2 kDa on SDS-PAGE; also called recombinant CC3 fragment
binding result: binds
